This data set concerns the molecule itself. Put plainly: cross-linking; in situ 1 mM DSG on minced human brain tissue (cerebellum, motor cortex) or mouse organotypic brain slices (control or 0.25 mM arsenite for 2 h), 37 °C, 30 min, quenched with 20 mM Tris; nucleo-cytoplasmic fractionation; immunoblot.

B1: wild-type superoxide dismutase 1 (SOD1), endogenous mouse (enzyme)
chain: not shown
notes: superoxide dismutase 1, mouse, endogenous in brain slices; source: endogenous, mouse brain slices
As for B1, the “stoichiometry N” value was found to be 2.
